This data set has as its system MS2 coat protein. Briefly: apparent KD of MS2 coat protein; designed switch direction (-1 OFF switch, 1 ON switch): 1; higher = weaker reporter binding. The essentials: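 Three titration conditions were used: no input, 200 uM small-molecule ligand, and an oligonucleotide input. In each, SNAP-549-labelled MS2 coat protein was raised from 0.7 or 1.5 nM, doubling, to 3 µM over designed RNA switches transcribed on Illumina chips by stalled E. coli RNA polymerase. Curve fits of normalised cluster fluorescence gave values whose per-design median over clusters is the apparent KD.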

The mark [1] stands for this setting: Eterna round: R95, input ligand: FMN 200 uM.
Where [2] appears, read: Eterna round: R95, input ligand: microRNA oligo, concentration not stated.
Setting [3] is: Eterna round: R95, input ligand: none.
Setting [4] is: input ligand: microRNA oligo, concentration not stated.

Results on 27 sequences are retold here after the supplement of paper PMC9170038.

For “GGCUAUCGCAUUCGAUAGCUUAAGCAUGUACAUGAGGAUCACCCAUGUCAUGUACAGGCUUUUUGCUCGUACUUAUA (puzzle: Sensor for hsa-mir-208a)”, the “apparent KD of MS2 coat protein” value is, setting by setting: under setting [1], 286 nM; under setting [2], 14.9 nM; under setting [3], 366 nM.
As for “GGCUAUCGCGUACGAUAGCUUAAGCAUGUACAUGAGGAUCACCCAUGUCAUGUACAAGCUUUUUGCUCGGCUUAUUG (puzzle: Sensor for hsa-mir-208a)”, the “apparent KD of MS2 coat protein” value under setting [1] stood at 119 nM, the “apparent KD of MS2 coat protein” value under setting [2] turned out to be 14.3 nM and the “apparent KD of MS2 coat protein” value under setting [3] is 132 nM.
As for “GGCUAUCGCGUACGAUAGCUUAGGCAUGUACAUGAGGAUCACCCAUGUCAUGUACAGGCUUUUUGCUCGUCUUAUUG [JL-shm-2.36 JL mod] (puzzle: Sensor for hsa-mir-208a)”, the “apparent KD of MS2 coat protein” value reads like this: under setting [1], 179 nM; under setting [2], 16.7 nM; under setting [3], 210 nM.
As for “GGGAAGAGGGACAAGGAUAUGUCAGGAGAGACAUGAGGAUCACCCAUGUGGAGGUUGGAGCAGAGACAGAAGGUGUACGGAGAGA [JR_SS2_Sub010] (puzzle: Same State 2)”, the “apparent KD of MS2 coat protein” value under setting [1] turned out to be 108 nM, the “apparent KD of MS2 coat protein” value under setting [2] amounted to 118 nM and the “apparent KD of MS2 coat protein” value under setting [3] is 145 nM.
Consider “GGGCCAGCUUUUGCUGGGCCUUCGCUUGCACAUGAGGAUCACCCAUGUCGUGUACACGCUUCCUGCCCGUCUUGUUU [Photon Torp-19] (puzzle: Sensor for hsa-mir-208a)”, for which the “apparent KD of MS2 coat protein” value under setting [1] stood at 24 nM, the “apparent KD of MS2 coat protein” value under setting [2] stood at 15.3 nM and the “apparent KD of MS2 coat protein” value under setting [3] was determined as 24.6 nM.
As to “GGUAAGAAUUAAGGAUAUUGAAUACAUAUGUUUAACAUGAGGAUCACCCAUGUGGGUUGCGGUGUCGAGAAGGUAAAAUAAUAG [Mat - same State NG 2 - JL mod - D101] (Eterna round: R96, puzzle: Same State NG 2)”, the “apparent KD of MS2 coat protein” value (input ligand: FMN 200 uM) was found to be 269 nM, the “apparent KD of MS2 coat protein” value under setting [4] came out at 166 nM and the “apparent KD of MS2 coat protein” value (input ligand: none) is 311 nM.
Turning to “GGUACCAUCACAGGAUAUGCUAUCCUUUGGGUAGCAGAAGGGUGAAACAUGAGGAUCACCCAUGUGGUGCCAGGGCGUGAGCCC [JL SSNG1 1.92] (Eterna round: R96, puzzle: Same State NG 1)”, the “apparent KD of MS2 coat protein” value runs as follows: (input ligand: FMN 200 uM) 31.2 nM; under setting [4], 398 nM; (input ligand: none) 689 nM.
The like results for “GGUAUCGACGCAGGAUAUGCUAUCCUUUGGGUAGCAGAAGGGUGAACAUGAGGAUCACCCAUGUGGGUGCCAGGGCGUGAGCCC [JL SSNG1 1.82] (Eterna round: R96, puzzle: Same State NG 1)” were, in that order, 694 nM, 18.2 nM and 86.8 nM.
With “GGUAUUGACACAGGAUAUGCUUACGAAACGUAAGCAGAAGGGUGAACAUGAGGAUCACCCAUGUAGGUACCAGGGCGUGAGCCC [JL SSNG1 1.75] (Eterna round: R96, puzzle: Same State NG 1)”, the “apparent KD of MS2 coat protein” value stood at 151 nM (input ligand: FMN 200 uM), 694 nM under setting [4] and 1470 nM (input ligand: none).
As to “GGUCCAGCCUGAGCUGGACAAAAGCAUGUACAUGAGGAUCACCCAUGUCAUGUACAAGCUUUUUGCUCGUCAAAAGG [Mat - hsa-mir-208a - 102] (puzzle: Sensor for hsa-mir-208a)”, the “apparent KD of MS2 coat protein” value under setting [1] was determined as 54.3 nM, the “apparent KD of MS2 coat protein” value under setting [2] stood at 16 nM and the “apparent KD of MS2 coat protein” value under setting [3] amounted to 89.5 nM.
On to “GGUCCAGCCUGAGCUGGACAAAAGCAUGUACAUGAGGAUCACCCAUGUCAUGUACAAGCUUUUUGCUCGUCAUAAAG [Mat - hsa-mir-208a - 97] (puzzle: Sensor for hsa-mir-208a)”, for which the “apparent KD of MS2 coat protein” value is 228 nM under setting [1], 18.2 nM under setting [2] and 334 nM under setting [3].
For “GGUCCAGCCUGAGCUGGACAAAAGCAUGUACAUGAGGAUCACCCAUGUCGUGUACAAGCUUUUUGCUCGUCUUAAAA [JL mod - D87 - 5] (puzzle: Sensor for hsa-mir-208a)”, in that order: 215 nM, 13.9 nM and 296 nM.
For “GGUCCAGCCUGAGCUGGACAGAAGCAUGUACAUGAGGAUCACCCAUGUCAUGUACAAGCUUUUUGCUCGUCUUAAAA [JL mod - D87 - 1] (puzzle: Sensor for hsa-mir-208a)”, in that order: 439 nM, 13.2 nM and 498 nM.
For “GGUCCAGCCUGAGCUGGACCACAGCAUGUACAUGAGGAUCACCCAUGUCAUGUACAAGCUUUUUGUUUAACUUAAAA [Sensorship 12 - Jieux - Sensor for hsa-mir-208a] (puzzle: Sensor for hsa-mir-208a)”, in that order: 211 nM, 18.2 nM and 287 nM.
With “GGUCCAGCCUGAGCUGGACCGAAGCGUGUACAUGAGGAUCACCCAUGUCAUGUACAGGCUUUUUGCUCGUCUUAUUG [JL-shm-2.11 JL Mod] (puzzle: Sensor for hsa-mir-208a)”, the “apparent KD of MS2 coat protein” value was 46.5 nM under setting [1], 20.6 nM under setting [2] and 72.9 nM under setting [3].
The like results for “GGUCCAGCUUUUGCUGGUCCUUCGCUUGCACAUGAGGAUCACCCAUGUCGUGUACAUGCUUGGUGCCCGUCUUUUUU [Photon Torp-16] (puzzle: Sensor for hsa-mir-208a)” were, in that order, 137 nM, 44.9 nM and 229 nM.
As for “GGUCCAUCAUGAGGAUAUGGCACCUUAUUGGUGCCAGAAGGCAUGUAAAUUAUAAUAAACAUGAGGAUCACCCAUGUAUGGACC [Eli NG1ss - 96] (Eterna round: R96, puzzle: Same State NG 1)”, the “apparent KD of MS2 coat protein” value came out at 439 nM (input ligand: FMN 200 uM), 55.5 nM under setting [4] and 137 nM (input ligand: none).
Turning to “GGUCCGGCCUGAGCUGGACCGAAGCAUGUACAUGAGGAUCACCCAUGUCAUGUACAGGCUUUUUGCUCGUCUUAUUG [JL-shm-2.13 JL Mod] (puzzle: Sensor for hsa-mir-208a)”, the “apparent KD of MS2 coat protein” value is, setting by setting: under setting [1], 705 nM; under setting [2], 14.4 nM; under setting [3], 683 nM.
Turning to “GGUCCGGCCUGAGCUGGACCGGAGCAUGUACAUGAGGAUCACCCAUGUCAUGUACAGGCUUCUUGCUCGUCUUGUUG [JL-shm-2.16 JL Mod] (Eterna round: R96, puzzle: Sensor for hsa-mir-208a)”, the “apparent KD of MS2 coat protein” value reads like this: (input ligand: FMN 200 uM) 282 nM; under setting [4], 14.8 nM; (input ligand: none) 130 nM.
For “GGUCCGGCCUGAGCUGGACCGGAGCAUGUACAUGAGGAUCACCCAUGUCAUGUACAGGCUUCUUGCUCGUCUUGUUG [JL-shm-2.16 JL Mod] (puzzle: Sensor for hsa-mir-208a)”, the “apparent KD of MS2 coat protein” value under setting [1] was found to be 314 nM, the “apparent KD of MS2 coat protein” value under setting [2] turned out to be 15 nM and the “apparent KD of MS2 coat protein” value under setting [3] was found to be 421 nM.
On to “GGUGCAAUAAACGCCUACAUGAGGAUCACCCAUGUAUGUAGGCAGGAUAUCGUUUGCAAAGCAAACGAGAAGGGCUAUAGUACC [Mat - Same State NG 3 - JL Mod - D44] (Eterna round: R96, puzzle: Same State NG 3)”, for which the “apparent KD of MS2 coat protein” value was determined as 56.2 nM (input ligand: FMN 200 uM), 123 nM under setting [4] and 161 nM (input ligand: none).
Regarding “GGUGCACGGUGACGUGCACGGUAGUGCGUACAUGAGGAUCACCCAUGUCAUGUAGGAGUUACUUGUUCGUCUUGAAC [SENSOR #2] (puzzle: Sensor for hsa-mir-208a)”, the “apparent KD of MS2 coat protein” value reads like this: under setting [1], 28.7 nM; under setting [2], 22.8 nM; under setting [3], 25.4 nM.
With “GGUGGGUUACUACCAACACAUGAGGAUCACCCAUGUUUUGGGAAGGAUAUGGUACCUAUUUGGUACCAGAAGGUCCCGUUGGUG [salish99_SSNG3_r04_705] (Eterna round: R96, puzzle: Same State NG 3)”, the “apparent KD of MS2 coat protein” value runs as follows: (input ligand: FMN 200 uM) 28.7 nM; under setting [4], 25.8 nM; (input ligand: none) 36 nM.
As for “GGUUUAGUCGAGUGCCAUUCCACUCGAAAACAUGAGGAUCACCCAUGUUUGGGACAAGCUUUGCUCCUCGUCUUUCC [Inertequ] (puzzle: Sensor for hsa-mir-208a)”, the “apparent KD of MS2 coat protein” value is, setting by setting: under setting [1], 259 nM; under setting [2], 75.8 nM; under setting [3], 371 nM.
As to “GUAAGUUCGAUGCUCGUCUCUCCGUACAAACAUGAGGAUCACCCAUGUGAUCGGGAAGUAGCCCGAUCAGUAUGGCC [Teonveenes] (puzzle: Sensor for hsa-mir-208a)”, the “apparent KD of MS2 coat protein” value by setting is: under setting [1], 34.8 nM; under setting [2], 24.3 nM; under setting [3], 38.2 nM.
The like results for “GUAAGUUCGAUGCUCGUCUCUCCGUACAAACAUGAGGAUCACCCAUGUGAUCGGGCAGUAGCCCGAUCAGUAUGGCC [Xearlaxe] (puzzle: Sensor for hsa-mir-208a)” were, in that order, 44 nM, 22.6 nM and 47 nM.
In the case of “GUACAGAUUAUAGGAUAUCACGUCGAUUAGACGUGAGAAGGAUAAUCACACAUGAAUAUUAAUACAUGAGGAUCACCCAUGUAC [SSNG1/17-A2] (Eterna round: R96, puzzle: Same State NG 1)”, the “apparent KD of MS2 coat protein” value by setting is: (input ligand: FMN 200 uM) 12.9 nM; under setting [4], 12.9 nM; (input ligand: none) 17 nM.
